Measured values from patent US20250122277A1 (Novartis, published 2025).

How the values were obtained:
[1] = molecular target: T1, rec cynomolgous monkey IL-17 (cynomolgous monkey); test: SPR (BIAcore 2000), mean (printed n = 10)
Text: (§1) Determination of kinetic binding parameters and levels of crossreactivity are done by surface plasmon resonance measurements using the optical biosensor BIAcore® 2000 (BIAcore AB, Upsalla, Sweden, see Lit. HS 1,2 for details). This technology allows the label-free determination the microscopic rate constants for binding (kₒₙ) and dissociation (koff) of a ligand to a receptor. It is therefore especially suited for characterizing the antibody-antigen interactions. […] Covalent binding of Fcγ capture antibody is done with the ‘Amine coupling kit’ provided by BIAcore (BIAcore, Cat. No. BR-1000-50). […] As a guideline, 1000 RUs correspond to a mass transfer of 1 ng/mm². […] The results are compared to the protocol described in Table 9 (see below).
(§2) Two independent runs testing 6 IL-17 concentrations in each run are performed. Concentrations for human IL-17 are 2, 4, 8, 12, 16, 20 nM and 10, 20, 30, 40, 50, 60 nM for all other species. Complete data analysis yields n=12 individual measurements for each IL-17 species. The KD as well as SEM is reported.

rec marmoset IL-17 [2] = molecular target: T2, rec marmoset IL-17 (marmoset, UniProt A0ACM8QD00 24-153); test: SPR (BIAcore 2000), 40 nM IL-17, run 1
T2 sequence: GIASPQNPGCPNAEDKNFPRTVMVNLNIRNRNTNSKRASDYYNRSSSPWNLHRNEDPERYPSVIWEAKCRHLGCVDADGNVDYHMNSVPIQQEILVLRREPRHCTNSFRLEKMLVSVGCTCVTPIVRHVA
Text: as §1, §2

rec rhesus monkey IL-17 [3] = molecular target: T3, rec rhesus monkey IL-17 (rhesus monkey, UniProt F6T3G5 24-155); test: SPR (BIAcore 2000), 40 nM IL-17, run 1
T3 sequence: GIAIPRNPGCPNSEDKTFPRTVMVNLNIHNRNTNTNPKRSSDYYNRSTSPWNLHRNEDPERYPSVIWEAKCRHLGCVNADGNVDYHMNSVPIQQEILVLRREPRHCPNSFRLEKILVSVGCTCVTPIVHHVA
Text: as §1, §2

rec marmoset IL-17 [4] = molecular target: T2, rec marmoset IL-17; test: SPR (BIAcore 2000), 10 nM IL-17, run 1
Text: as §1, §2

rec rhesus monkey IL-17 [5] = molecular target: T3, rec rhesus monkey IL-17; test: SPR (BIAcore 2000), 10 nM IL-17, run 1
Text: as §1, §2

[6] = molecular target: T1, rec cynomolgous monkey IL-17; test: SPR (BIAcore 2000), 10 nM IL-17, run 1
Text: as §1, §2

rec marmoset IL-17 [7] = molecular target: T2, rec marmoset IL-17; test: SPR (BIAcore 2000), 50 nM IL-17, run 2
Text: as §1, §2

rec marmoset IL-17 [8] = molecular target: T2, rec marmoset IL-17; test: SPR (BIAcore 2000), 50 nM IL-17, run 1
Text: as §1, §2

rec rhesus monkey IL-17 [9] = molecular target: T3, rec rhesus monkey IL-17; test: SPR (BIAcore 2000), 50 nM IL-17, run 1
Text: as §1, §2

rec marmoset IL-17 [10] = molecular target: T2, rec marmoset IL-17; test: SPR (BIAcore 2000), 30 nM IL-17, run 2
Text: as §1, §2

rec rhesus monkey IL-17 [11] = molecular target: T3, rec rhesus monkey IL-17; test: SPR (BIAcore 2000), 30 nM IL-17, run 2
Text: as §1, §2

[12] = molecular target: T1, rec cynomolgous monkey IL-17; test: SPR (BIAcore 2000), 30 nM IL-17, run 2
Text: as §1, §2

rec marmoset IL-17 [13] = molecular target: T2, rec marmoset IL-17; test: SPR (BIAcore 2000), 20 nM IL-17, run 1
Text: as §1, §2

rec rhesus monkey IL-17 [14] = molecular target: T3, rec rhesus monkey IL-17; test: SPR (BIAcore 2000), 20 nM IL-17, run 1
Text: as §1, §2

[15] = molecular target: T1, rec cynomolgous monkey IL-17; test: SPR (BIAcore 2000), 20 nM IL-17, run 1
Text: as §1, §2

rec rhesus monkey IL-17 [16] = molecular target: T3, rec rhesus monkey IL-17; test: SPR (BIAcore 2000), 60 nM IL-17, run 2
Text: as §1, §2

[17] = molecular target: T1, rec cynomolgous monkey IL-17; test: SPR (BIAcore 2000), 25 nM IL-17, run 1
Text: as §1
(§3) Two independent runs testing 6 IL-17 concentrations in each run are performed. […] Complete data analysis yields n=12 individual measurements for each IL-17 species. The KD as well as SEM is reported.

rec rhesus monkey IL-17 [18] = molecular target: T3, rec rhesus monkey IL-17; test: SPR (BIAcore 2000), mean n = 12
Text: as §1, §2

[19] = molecular target: T1, rec cynomolgous monkey IL-17; test: SPR (BIAcore 2000), 15 nM IL-17, run 2
Text: as §1, §3

[20] = molecular target: T1, rec cynomolgous monkey IL-17; test: SPR (BIAcore 2000), 5 nM IL-17, run 2
Text: as §1, §3

rec marmoset IL-17 [21] = molecular target: T2, rec marmoset IL-17; test: SPR (BIAcore 2000), 20 nM IL-17, run 2
Text: as §1, §2

rec rhesus monkey IL-17 [22] = molecular target: T3, rec rhesus monkey IL-17; test: SPR (BIAcore 2000), 20 nM IL-17, run 2
Text: as §1, §2

[23] = molecular target: T1, rec cynomolgous monkey IL-17; test: SPR (BIAcore 2000), 20 nM IL-17, run 2
Text: as §1, §2

rec marmoset IL-17 [24] = molecular target: T2, rec marmoset IL-17; test: SPR (BIAcore 2000), mean n = 10
Text: as §1, §2

rec marmoset IL-17 [25] = molecular target: T2, rec marmoset IL-17; test: SPR (BIAcore 2000), 10 nM IL-17, run 2
Text: as §1, §2

rec rhesus monkey IL-17 [26] = molecular target: T3, rec rhesus monkey IL-17; test: SPR (BIAcore 2000), 10 nM IL-17, run 2
Text: as §1, §2

[27] = molecular target: T1, rec cynomolgous monkey IL-17; test: SPR (BIAcore 2000), 10 nM IL-17, run 2
Text: as §1, §2

rec marmoset IL-17 [28] = molecular target: T2, rec marmoset IL-17; test: SPR (BIAcore 2000), 30 nM IL-17, run 1
Text: as §1, §2

rec rhesus monkey IL-17 [29] = molecular target: T3, rec rhesus monkey IL-17; test: SPR (BIAcore 2000), 30 nM IL-17, run 1
Text: as §1, §2

[30] = molecular target: T1, rec cynomolgous monkey IL-17; test: SPR (BIAcore 2000), 30 nM IL-17, run 1
Text: as §1, §2

rec marmoset IL-17 [31] = molecular target: T2, rec marmoset IL-17; test: SPR (BIAcore 2000), 40 nM IL-17, run 2
Text: as §1, §2

rec rhesus monkey IL-17 [32] = molecular target: T3, rec rhesus monkey IL-17; test: SPR (BIAcore 2000), 40 nM IL-17, run 2
Text: as §1, §2

rec rhesus monkey IL-17 [33] = molecular target: T3, rec rhesus monkey IL-17; test: SPR (BIAcore 2000), 60 nM IL-17, run 1
Text: as §1, §2

[34] = molecular target: T1, rec cynomolgous monkey IL-17; test: SPR (BIAcore 2000), 5 nM IL-17, run 1
Text: as §1, §3

rec rhesus monkey IL-17 [35] = molecular target: T3, rec rhesus monkey IL-17; test: SPR (BIAcore 2000), mean of run 1 + 2
Text: as §1, §2

[36] = molecular target: T1, rec cynomolgous monkey IL-17; test: SPR (BIAcore 2000), mean of run 1 + 2
Text: as §1, §2

[37] = molecular target: T1, rec cynomolgous monkey IL-17; test: SPR (BIAcore 2000), 25 nM IL-17, run 2
Text: as §1, §3

B1: recombinant human AIN457 (batch KB03303A) (antibody, V domains shown)
VH: EVQLVESGGGLVQPGGSLRLSCAASGFTFSNYWMNWVRQAPGKGLEWVAAINQDGSEKYYVGSVKGRFTISRDNAKNSLYLQMNSLRVEDTAVYYCVRDYYDILTDYYIHYWYFDLWGRGTLVTVSS
VL: not shown
notes: same variable domains as m1; also called AIN457 (KB03303A); NVP-AIN457 (KB03303A)
[1]
  Kd: 6 nM
Rec marmoset IL-17 [2]
  Kd: 1.17 nM
Rec rhesus monkey IL-17 [3]
  Kd: 12.4 nM
Rec marmoset IL-17 [4]
  Kd: 0.895 nM
Rec rhesus monkey IL-17 [5]
  Kd: 2.28 nM
[6]
  Kd: 2.24 nM
Rec marmoset IL-17 [7]
  Kd: 1.67 nM
Rec marmoset IL-17 [8]
  Kd: 1.21 nM
Rec rhesus monkey IL-17 [9]
  Kd: 11.2 nM
Rec marmoset IL-17 [10]
  Kd: 1.57 nM
Rec rhesus monkey IL-17 [11]
  Kd: 8.16 nM
[12]
  Kd: 8.32 nM
Rec marmoset IL-17 [13]
  Kd: 0.782 nM
Rec rhesus monkey IL-17 [14]
  Kd: 7.34 nM
[15]
  Kd: 4.75 nM
Rec rhesus monkey IL-17 [16]
  Kd: 12.3 nM
[17]
  Kd: 6.26 nM
Rec rhesus monkey IL-17 [18]
  Kd: 8.96 nM
[19]
  Kd: 7.41 nM
[20]
  Kd: 7.08 nM
Rec marmoset IL-17 [21]
  Kd: 1.17 nM
Rec rhesus monkey IL-17 [22]
  Kd: 5.93 nM
[23]
  Kd: 7.17 nM
Rec marmoset IL-17 [24]
  Kd: 1.21 nM
Rec marmoset IL-17 [25]
  Kd: 1.13 nM
Rec rhesus monkey IL-17 [26]
  Kd: 7.04 nM
[27]
  Kd: 6.9 nM
Rec marmoset IL-17 [28]
  Kd: 1.17 nM
Rec rhesus monkey IL-17 [29]
  Kd: 6.04 nM
[30]
  Kd: 7.89 nM
Rec marmoset IL-17 [31]
  Kd: 1.36 nM
Rec rhesus monkey IL-17 [32]
  Kd: 9.74 nM
Rec rhesus monkey IL-17 [33]
  Kd: 13.1 nM
[34]
  Kd: 1.1 nM
Rec rhesus monkey IL-17 [35]
  Kd: 9 nM
[36]
  Kd: 6 nM
[37]
  Kd: 7.34 nM
